A short description of series [1]: Association of AntpHD-Cw3 with liposomes (size exclusion chromatography, micro BCA protein assay, [3H]CHE lipid count). The format is physicochemical. Conditions: for coupling efficiency: 10 mol % DOGS-NTA-Ni. As for the experimental part: Formulations were incubated with AntpHD-Cw3, free peptide was separated from the associated peptide using size exclusion chromatography, amount of peptide (□) and lipid (●) was then determined for each fraction as described herein.
DOPC/Chol liposomes containing 0% (O) and 10% (▪) DOGS-NTA-Ni were incubated with AntpHD-Cw3 at various peptide to liposome ratio for 30 min. at room temperature. The amount of peptide bound was determined after the incubation period as described herein. Data presented represent averaged results obtained from three liposome preparations ±S.E.M.
200 μg of dialyzed AntpHD-Cw3 was incubated with 10 μmoles liposomes as described for FIGS. 2-4 (v/v) for 30 min. at room temperature under rotary shaking. The mixture was then loaded on a Biogel™ A 1.5 m chromatography column in order to remove the free peptide from peptide that was incorporated into the liposome. The peptide/liposome ratio was determined by quantifying liposomal lipid using [^3H]CHE. Radioactivity was measured by liquid scintillation counting on a Can berra-Packard scintillation P counter (1900 TR Tri Carb™), using Pico-fluor 40™ scintillation cocktail. The peptide was quantified using the micro BCA™ protein assay kit, after dissolving the liposomes in 0.5% triton. BSA was used as the standard for this analysis.
(In gel filtration, larger molecules generally elute earlier.)

In the case of “AntpHD-Cw3: Antennapedia homeodomain fused to Cw3 epitope (170-179), with 10-histidine tag and 13-amino acid linker (SEQ ID NO:1)”, the coupling efficiency amounted to 80% in series [1] (initial ratio 60 AntpHD-Cw3/μmole lipid) and 65% in series [1] (initial ratio 80 AntpHD-Cw3/μmole lipid). The “saturation of AntpHD-Cw3 binding” value in series [1] (liposomes with 10 mol % DOGS-NTA-Ni, FIG. 3) was “around 50 μg AntpHD-Cw3/μmole liposomal lipid”.

In the case of `CCCCCCCC/C=C\CCCCCCCC(=O)OC[C@H](COC(=O)CCC(=O)NCCCCC(C(=O)O)N(CC(=O)[O-])CC(=O)[O-])OC(=O)CCCCCCC/C=C\CCCCCCCC.[Ni+2]` (stereo partly shown) [DOGS-NTA-Ni, 1,2-Dioleoyl-sn-glycero-3-{[n(5-amino-1-carboxypentyl)iminodiaceticacid]succinyl} (Nickel Salt)], the “immune response to the lipid alone” value is “little in the way of a detectable immune response”.

The values are drawn from patent US20050058697A1, “Cell penetrating therapeutic agents” (priority 2001, published 2005).
